The source of these data is paper PMC4678846.

Substrate in this series: CC(C)(C)OC(=O)NCCCC[C@H](N)C(=O)O
The series is described as follows: purified protein. The conditions noted are these: wild-type tRNA^Pyl, 10 mM ATP, 10 mM MgCl2, pH 7.2, 37 °C, apparent, amino acid not given, BocK inferred.

B1: MbPylRS (Methanosarcina barkeri str. Fusaro) (protein)
chain: MDKKPLDVLISATGLWMSRTGTLHKIKHYEVSRSKIYIEMACGDHLVVNNSRSCRTARAFRHHKYRKTCKRCRVSDEDINNFLTRSTEGKTSVKVKVVSAPKVKKAMPKSVSRAPKPLENPVSAKASTDTSRSVPSPAKSTPNSPVPTSAPAPSLTRSQLDRVEALLSPEDKISLNIAKPFRELESELVTRRKNDFQRLYTNDREDYLGKLERDITKFFVDRDFLEIKSPILIPAEYVERMGINNDTELSKQIFRVDKNLCLRPMLAPTLYNYLRKLDRILPDPIKIFEVGPCYRKESDGKEHLEEFTMVNFCQMGSGCTRENLESLIKEFLDYLEIDFEIVGDSCMVYGDTLDIMHGDLELSSAVVGPVPLDREWGIDKPWIGAGFGLERLLKVMHGFKNIKRASRSESYYNGISTNL
In the case of B1, the Michaelis-Menten constant (Km) was 1030 ± 50 µM.
